Measured values from patent US20180312557A1, “Leg1 Protein, Leg1 Gene, and Uses and Drugs thereof” (ZHEJIANG UNIVERSITY, priority 2016, published 2018).

What was measured:
EGFR [1] = target: T1, EGFR (Homo sapiens, UniProt P00533); assay: Effect of EGFR inhibitor on mLeg1-induced Akt and EGFR phosphorylation in HepG2 cells; type: cell-based; settings: HepG2, 15 minutes
T1 construct: endogenous in cells; host or cells: HepG2
Text: 20.1 Culture of the HepG2 cell: reference may be made to step 18.1 for details.

[2] = system: Akt phosphorylation in the liver; assay: Liver Akt phosphorylation after intragastric administration of mLeg1; type: in vivo, mouse
Procedure: (§1) 22.1 The column chromatography partially purified mLeg1 protein was intragastrically administered to the mLeg1^Δ/Δ mice at 50 ng of mLeg1 per gram of body weight of the mice.
(§2) 22.2 The mice were sacrificed at different time points (0, 10, 20, 40, 60 min) after intragastric administration and liver samples were collected, an immunoprecipitation experiment was conducted to pull down mLeg1 protein (if there is any) and its interacting protein in the liver by using mLeg1 antibodies Reference may be made to steps 21.2-21.5.
This may result from the fact that mLeg1 binds with EGFR rapidly, and transmitted downstream signals rapidly, as in in vitro experiments, mLeg1 can activate EGFR within 1 minute and the phosphorylation level of EGFR began to decrease within 3 minutes. Further, the inventors of the present disclosure also detected the activation of such intragastrically administered mLeg1 protein on downstream Akt. […] According to the above results, mLeg1 secreted from the salivary glands can be transferred into the liver and activates EGFR in the liver, thereby activating Akt to finally regulate the physiological functions of the liver cells.

[3] = mLeg1 protein in liver of mLeg1Δ/Δ mice after intragastric administration (immunoprecipitation); type: in vivo, mouse
Procedure: as §1, §2

EGFR [4] = target: T2, EGFR (Mus musculus, UniProt Q01279); assay: EGFR interacting with mLeg1 in liver after intragastric administration (co-immunoprecipitation); type: in vivo
T2 construct: from tissue; host or cells: liver of mLeg1^Δ/Δ mice
Procedure: as §1, §2

EGFR [5] = target: T2, EGFR; assay: Co-immunoprecipitation of mLeg1 and EGFR in cells isolated from liver homogenate; type: binding; settings: liver cells incubated at 4° C. with crosslinking agent DSP
Procedure: Since the reaction of mLeg1 activating EGFR is very short and the EGFR will be degraded soon after being activated, the inventors of the present disclosure used mLeg1 to incubate the liver cells at 4° C., and simultaneously added a crosslinking agent DSP thereto to stabilize the interaction between mLeg1 and its potential interacting protein, and then washed mLeg1 and lysed the liver cells using NP40 lysate for co-immunoprecipitation. The experimental method was as follows.
21.1 Antibody crosslinking: 30 μl of proteinA/G (beyotime Cat. No. P2012) was centrifuged at a low speed (500-1000 g) to remove the supernatant, and then washed twice using 4° C. pre-chilled PBS, then added with mLeg1 antibody (20 μg of antibody were dissolved in 1×100 μl PBS) for incubation at room temperature for 30 minutes, and then centrifuged to remove the supernatant. The beads were washed three times with 300 μl of PBS, then incubated with 50 μl of DSS solution (5 μl 10×PBS, 36 μl H2O, 9 μl 2.5 mM DSS (Thermo, Cat. NO. 21655)) for 50 minutes at room temperature. After centrifugation to remove supernatant, the beads were washed three times with 50 μl of 100 mM pH 2.2 glycine, washed twice with 300 μl of PBS containing 1% NP40, and finally washed once with 300 μl of PBS. […]
21.5 The protein pulled down by the mLeg1 antibody was detected by Western blot.

[6] = system: Akt phosphorylation of the HepG2 cells; assay: Akt phosphorylation of HepG2 cells incubated with salivary gland cell culture supernatant (Western blot); type: cell-based, human; settings: wild type supernatant containing mLeg1
Procedure: 14.1 Culture of human liver cancer cells HepG2: 10% newborn calf serum (GIBCO Cat. No. 16010-159) in DMEM high-glucose culture medium was used to culture the cell line. Cells were kept in a 37° C. incubator with 5% CO2, and saturated humidity. At the time of passage, the culture solution was thoroughly removed, and the left cells was digested with 0.25% typsin (EDTA-free, Sigma Cat. No. T4549), and an appropriate amount of cells were subjected to subculture or subsequent experiments.
14.2 The adherent HepG2 cells were incubated using the culture supernatant of the primary culture of the wild-type mouse salivary gland cells and the culture supernatant of the mLeg1^Δ/Δ mice, and the cell samples were collected 20 minutes later and 10 hours later.
14.3 The content of p-Akt was detected using an Akt phosphorylation antibody by Western blot, so as to reflect Akt phosphorylation level.

- EGFR phosphorylation (EGFR [1]; mLeg1 treatment): induced EGFR phosphorylation
- Akt phosphorylation (EGFR [1]; partially purified mLeg1 vs BSA control): could be induced
- time at which the amount of EGFR that interacts with mLeg1 reached the maximum (EGFR [4]): 10 min
- interaction with EGFR (pull-down by mLeg1 antibody) (EGFR [5]): EGFR could be co-precipitated
B1: mLeg1 protein: mouse secretory protein (SEQ ID NO: 2) encoded by mLeg1 gene, partially purified from salivary glands by column chromatography (protein, listed as Mus musculus)
chain: MAVLASWVWVLAGCFCAAVAEVSDSSDPYPPLWEDSPEQLSDYMMEDGNYIINPWVYTDRMGMYRILLEETAMYFAKYGPENEQNLLWGLPLQFGWQYQSGRLADPTGMTDCGNELNESLCVSVDSWWADINYYLSVIPFLAAVDSGITGISPNQITILPPPKDQMRFCYNVSDCQSAVPGTMNRWRDFFQYMQLNSSDFDGLLNYLWEAHASSLDYPTSAFGDRYNFYSEKEANFEENWAIAVNYLAAARLPTTQNRTYSFQRGLPPRVLVDTDIAPFIPDFTPLQNEVLVSLKLLGDTDRNSGSLSLTLWENLMSTKLARTLFLKAFEEFLATSS
modifications: partially purified
- Akt phosphorylation in the liver ([2]; 10 minutes after intragastric administration): increased
- Akt phosphorylation in the liver ([2]; 40 minutes to 60 minutes after intragastric administration): more significant
- mLeg1 in the liver ([3]; 40 minutes and 60 minutes after intragastric administration): decreased
- time at which the amount of mLeg1 protein in the liver reached the maximum value ([3]; mLeg1Δ/Δ mice, 50 ng per gram of body weight, intragastric): 20 min
- time within which Akt phosphorylation is induced [6]: ≤ 20 min
